Results published in patent US12098206B2, “PDGF receptor antibody and use thereof” (Seoul National University R&DB Foundation, priority 2018, dated 2024).
“Also recorded” adds a separate entry of the source.

Tests used:
human pericyte cells [1] = experiment: Anti-proliferative (cytotoxicity) test in human pericyte cells, cellular ATP; assay type: cell-based; conditions: with or without hPDGF-BB; FIGS. 14a and 14b
Protocol: Human pericyte cells were added to 50 μL of DMEM supplemented with 10% FBS and 1% penicillin/streptomycin, placed in a 96-well plate (CLS3595, Corning) and incubated overnight in 5% CO2 at 37° C. incubator. In each well containing 50 μL of cells, 50 μL of 50 anti-hPDGFR-β x cotinine scFv-Cκ-scFv fusion protein (25.6 pM-2 μM) complexed with cot-duo was added and incubated for 72 hours in 5% CO2 and 37° C. incubator.
To evaluate the effect of hPDGF-BB on the toxicity of the complex of the bispecific antibody of scFv-Cκ-scFv and cot-duo, hPDGF-BB (2 nM) was added together with 50 μL of the bispecific antibody scFv-Cκ-scFv and cot-duo complex. The mixed complexes were added to 50 μL of cell-containing solution. The bispecific antibody anti-mCD154 x cotinine scFv-Cκ-scFv was used as a control. Other experimental methods were carried out in the same manner as in the protocol of the anti-mPDGFR-β x cotinine scFv-Cκ-scFv fusion protein in Example 7.
In order to evaluate the toxicity of the anti-hPDGFR-β x cotinine scFv-Cκ-scFv fusion protein and cot-duo complexes, the complex was treated in human pericyte cells with or without hPDGF-BB, and the cells were […] to measure the relative viability. The toxicity of the bispecific antibody of anti-hPDGFR-β x cotinine scFv-Cκ-scFv fusion protein and cot-duo complex was shown by IC50 (Table 8).

mPDGFR-β = biological target: T1, mPDGFR-β (Mus musculus, UniProt P05622); experiment: Cross-species enzyme immunoassay, mPDGFR-β; assay type: binding; conditions: 100 nM; FIG. 17
T1 construct: mPDGFR-β
T1 sequence (P05622 32-530): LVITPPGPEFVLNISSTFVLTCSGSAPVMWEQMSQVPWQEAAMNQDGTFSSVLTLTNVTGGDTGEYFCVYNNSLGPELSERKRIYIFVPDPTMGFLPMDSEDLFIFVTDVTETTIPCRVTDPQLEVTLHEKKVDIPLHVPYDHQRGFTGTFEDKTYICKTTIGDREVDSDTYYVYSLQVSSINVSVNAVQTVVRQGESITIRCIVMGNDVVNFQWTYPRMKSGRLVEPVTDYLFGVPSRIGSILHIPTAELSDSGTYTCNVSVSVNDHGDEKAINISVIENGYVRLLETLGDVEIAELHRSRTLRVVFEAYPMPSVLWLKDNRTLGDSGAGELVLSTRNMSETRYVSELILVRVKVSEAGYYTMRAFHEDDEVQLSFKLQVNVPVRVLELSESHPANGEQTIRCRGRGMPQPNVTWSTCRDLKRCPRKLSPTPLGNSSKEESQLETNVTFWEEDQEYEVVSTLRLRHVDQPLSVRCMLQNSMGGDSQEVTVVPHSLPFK
Protocol: (§1) 100 ng of hPDGFR-β, mPDGFR-β, rhesus PDGFR-β (90215-C02H, Sino Biological Inc. Beijing, China), cynomolgus monkey PDGFR-β, Sus scrofa PDGFR-β-Fc chimera or TNF-α receptor extracellular domain-human Fc fusion protein was coated with 4° C. temperature O/N. After blocking the wells, sequential culture of the anti-hPDGFR-β scFv-Cκ-scFv fusion protein and the HRP conjugated anti-human Cκ antibody was followed in the same manner as in Example 3.
(§2) FIG. 17 is a graph showing an experiment of the cross-species reaction of the bispecific antibody against the anti-hPDGFR-β antibody according to the present invention. On the microtiter plates coated with hPDGFR-β, mPDGFR-β, Rhesus PDGFR-β, Cynomolgus monkey PDGFR-β, Sus scrofa PDGFR-β and control Fc coated, the bispecific antibody containing anti-hPDGFR-β antibody according to the present invention (100 nM) was reacted and the amount of bound bispecific antibody was measured using HRP conjugated anti-human Cκ antibody and TMB.

Rhesus PDGFR-β = biological target: T2, Rhesus PDGFR-β (Macaca mulatta, UniProt I0FLK2); experiment: Cross-species enzyme immunoassay, Rhesus PDGFR-β; assay type: binding; conditions: 100 nM; FIG. 17
T2 construct: Fc; purchased Sino Biological Inc. 90215-C02H
Protocol: as §1, §2

human pericyte cells [2] = experiment: Internalization analysis by confocal microscopy in human pericyte cells; assay type: cell-based
Protocol: Human pericyte cells were treated with the diluted bispecific antibody scFv-Cκ-scFv (10 μg/mL) in pericyte growth medium supplemented with 10% FBS, and internalized at 37° C. for 30 minutes. The analysis was performed in the same manner according to the protocol of the confocal microscope of the anti-mPDGFR-β x cotinine scFv-Cκ-scFv fusion protein of Example 4. After the addition of hPDGF-BB (50 ng/mL) to the bispecific antibody scFv-Cκ-scFv fusion protein, the confocal microscopy experiments were performed according to the same protocol.
The internalization of the bispecific antibody scFv-Cκ-scFv fusion protein was visualized. After treatment of human pericyte cells with the fusion protein, antibodies bound to the cell surface were removed. After cell fixation, the fusion protein was stained with FITC-anti human Cκ antibody (green). To visualize early endosomes, the cells were stained with anti-Rab5 antibody and Alexa Fluor 546-goat anti-rabbit antibody IgG (red). […] DNA was stained with DAPI (blue)(Scale bar, 10 μm). FIG. 13d was repeated with hPDGF-BB.
To measure the cellular internalization of the bispecific antibody of scFv-Cκ-scFv, anti-hPDGFR-β x cotinine scFv-Cκ-scFv fusion protein was incubated in human pericyte cells, and then treated with FITC-anti-human Cκ antibody and endosome-specific antibody. It was imaged using a confocal microscope. […] When the images were merged, the present inventors confirmed that the fluorescence of the two antibody clones and the endosome-specific antibody were co-localized. […] Internalization of the antibody is very important for delivery of drug into the target cell. […] Therefore, it is useful for intracellular delivery of drug to patients with diseases.

A-431 cells = experiment: Cytotoxicity in A-431 cells not expressing hPDGFR-β; assay type: cell-based; conditions: complex with cot-duo (DAR4); FIG. 16
Protocol: FIG. 16 is a graph showing that cytotoxicity assays of bispecific antibody related with anti-hPDGFR-β antibody complexed with cot-duo complexes on the cells not expressing hPDGFR-β. A-431 cells were treated with anti-hPDGFR-β x cotinine fusion protein and cot-duo (DAR4). The cellular ATP levels were measured to determine relative cell viability. Bispecific anti-mCD154 x cotinine scFv-Cκ-scFv fusion protein was used as a negative control. DMSO was used as a vehicle control of cot-duo. Results are shown as the mean±SD acquired from three repetitive experiments.
All of the anti-hPDGFR-β x cotinine scFv-Cκ-scFv fusion proteins had not higher toxicity than the control antibody anti-mCD154 x cotinine scFv-Cκ-scFv fusion protein (FIG. 16). Therefore, as a result of anti-proliferative analysis result, the bispecific antibody/cot-duo complex had higher cytotoxicity in the human pericyte cell lines expressing hPDGFR-β, compared to the control anti-mCD154 x cotinine scFv-Cκ-scFv, but there was no difference in cytotoxicity in A-431 not expressing hPDGFR-β, compared to the control anti-mCD154 x cotinine scFv-Cκ-scFv.

[3] = 10 μg/mL, 37° C., 30 minutes, absence of hPDGF-BB, FIG. 13c
[4] = treated with hPDGF-BB (50 ng/mL), FIG. 13d

T2 sequence (I0FLK2 33-531 limits assumed): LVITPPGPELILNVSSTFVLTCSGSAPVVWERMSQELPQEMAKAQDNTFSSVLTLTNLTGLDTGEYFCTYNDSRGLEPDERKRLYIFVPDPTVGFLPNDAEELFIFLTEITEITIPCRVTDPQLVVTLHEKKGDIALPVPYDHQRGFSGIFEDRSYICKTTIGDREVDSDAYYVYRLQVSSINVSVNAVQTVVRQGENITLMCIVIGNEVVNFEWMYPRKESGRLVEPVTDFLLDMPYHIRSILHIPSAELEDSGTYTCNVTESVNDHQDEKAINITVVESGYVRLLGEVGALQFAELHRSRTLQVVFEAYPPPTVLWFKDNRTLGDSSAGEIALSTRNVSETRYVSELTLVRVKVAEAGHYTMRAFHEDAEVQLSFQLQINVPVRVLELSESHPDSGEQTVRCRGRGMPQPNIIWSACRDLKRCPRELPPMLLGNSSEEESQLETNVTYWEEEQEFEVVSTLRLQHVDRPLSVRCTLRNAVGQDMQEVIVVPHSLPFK

B1: PRb-CN16: anti-hPDGFR-β scFv clone (VH SEQ ID NO 39, VL SEQ ID NO 40), tested as scFv-Cκ-anti-cotinine scFv bispecific antibody (antibody, V domains shown)
VH: AVTLDESGGGLQTPGTALSLVCKASGFTFSSFNMAWVRQAPGKGLEFVGEISNTAGSTFYAPAVKGRATISRDNGQSTVRLQLNNLRAEDTAIYYCAKAAGTCYSHSCTGYIDAWGHGTEVIVSSTS
VL: LTQPSSVSANPGETVKITCSGSSSSYGWYQQKSPGSAPVTLIYENNQRPSNIPSRFSGSKSGSTGTLTITGVQAEDEAVYYCGNADRSNSAGTFGAGTTLTVL
modifications: VH of PRb-CN16; VL of PRb-CN16
Human pericyte cells [1]
  toxicity of complex with cot-duo in human pericyte cells, comparison: higher toxicity than control anti-mCD154 x cotinine scFv-Cκ-scFv
mPDGFR-β
  cross-species binding, mPDGFR-β: confirmed to bind
Rhesus PDGFR-β
  cross-species binding, Rhesus PDGFR-β: confirmed to bind
Human pericyte cells [2]; [3]
  cellular internalization: Intracellular fluorescence was detected
Human pericyte cells [2]; [4]
  cellular internalization: co-localized with endosome-specific antibody
A-431 cells
  toxicity in A-431 cells compared to control anti-mCD154 x cotinine scFv-Cκ-scFv: equivalent cytotoxicity

B2: PRb-CN26: anti-hPDGFR-β scFv clone (VH SEQ ID NO 55, VL SEQ ID NO 56), tested as scFv-Cκ-anti-cotinine scFv bispecific antibody (antibody, V domains shown)
VH: AVTLDESGGGLQTPGGGLSLVCKASGFTFSDRGIHWVRQAPGKGLEWVAGIGNTGSYTAYAPAVKGRATISRDNGQSTVRLQLNNLRAEDTATYYCAKRGFMDAGGIDAWGHGTEVIVSSTS
VL: LTQPSSVSANPGETVKITCSGGGSYAGSYYYGWYQQKSPGSAPVTVIYDNTNRPSNIPSRFSGSLSGSTDTLTITGVQAEDEAVYFCGGYDGISDTGIFGAGTTLTVL
modifications: VH of PRb-CN26; VL of PRb-CN26
Human pericyte cells [1]
  toxicity of complex with cot-duo in human pericyte cells, comparison: higher toxicity than control anti-mCD154 x cotinine scFv-Cκ-scFv; also recorded: highest cytotoxicity
mPDGFR-β
  cross-species binding, mPDGFR-β: confirmed to bind
Rhesus PDGFR-β
  cross-species binding, Rhesus PDGFR-β: confirmed to bind
Human pericyte cells [2]; [3]
  cellular internalization: not internalized
Human pericyte cells [2]; [4]
  cellular internalization: co-localized with endosome-specific antibody; also recorded: internalized in a large amount within 30 minutes
A-431 cells
  toxicity in A-431 cells compared to control anti-mCD154 x cotinine scFv-Cκ-scFv: equivalent cytotoxicity

B3: PRb-CN32: anti-hPDGFR-β scFv clone (VH SEQ ID NO 47, VL SEQ ID NO 48), tested as scFv-Cκ-anti-cotinine scFv bispecific antibody (antibody, V domains shown)
VH: AVTLDESGGGLQTPRGTLSLVCKASGFTFSSFNMFWVRQAPGKGLEFVAGISTTGRYTGYGSAVQGRGTISRDNGQSTVRLQLNNLRAEDTGTYYCAKSAGSTYSYWDSDAGLIDAWGHGTEVIVSSTS
VL: LTQPSSVSANLGETVKITCSGGSNAGSYYYGWYQQKSPGSAPVTVIYSNNQRPSDIPSRFSGSTSGSTSTLTITGVQVDDEAVYFCGSGDSSSIAAFGAGTTLTVL
modifications: VH of PRb-CN32; VL of PRb-CN32
Human pericyte cells [1]
  toxicity of complex with cot-duo in human pericyte cells, comparison: higher toxicity than control anti-mCD154 x cotinine scFv-Cκ-scFv; also recorded: highest cytotoxicity
mPDGFR-β
  cross-species binding, mPDGFR-β: confirmed to bind
Rhesus PDGFR-β
  cross-species binding, Rhesus PDGFR-β: confirmed to bind
Human pericyte cells [2]; [3]
  cellular internalization: Intracellular fluorescence was detected; also recorded: internalizes most effectively
Human pericyte cells [2]; [4]
  cellular internalization: co-localized with endosome-specific antibody
A-431 cells
  toxicity in A-431 cells compared to control anti-mCD154 x cotinine scFv-Cκ-scFv: equivalent cytotoxicity
